From US20250134956A1 (published 2025)
Changes are numbered by the printed parent chain.

T1: Kita-kyushu lung cancer antigen 1 (CT83, KKLC1, CXorf61) peptide on HLA-A*02 (human)
T1 peptide: KLVELEHTLL

T2: Kita-kyushu lung cancer antigen 1 (CT83, KKLC1, CXorf61) peptide on HLA-A*02 (human)
T2 peptide: RILVNLSMV

B1: TCR of SEQ ID NOs 10 and 11 (TCR, V domains shown)
Valpha: KQEVTQIPAALSVPEGENLVLNCSFTDSAIYNLQWFRQDPGKGLTSLLLIQSSQREQTSGRLNASLDKSSGRSTLYIAASQPGDSATYLCAVTTQGGSEKLVFGKGTKLTVNP
Vbeta: NAGVTQTPKFQVLKTGQSMTLQCAQDMNHEYMSWYRQDPGMGLRLIHYSVGAGITDQGEVPNGYNVSRSTTEDFPLRLLSAAPSQTSVYFCASSYSDRGYSPLHFGNGTRLTVT
B2: TCR of SEQ ID NOs 14 and 15 (TCR, V domains shown)
Valpha: KQEVTQIPAALSVPEGENLVLNCSFTDSAIYNLQWFRQDPGKGLTSLLLIQSSQREQTSGRLNASLDKSSGRSTLYIAASQPGDSATYLCAVGGEETSGSRLTFGEGTQLTVNP
Vbeta: B1 Vbeta
B3: TCR of SEQ ID NOs 12 and 13 (TCR, V domains shown)
Valpha: KQEVTQIPAALSVPEGENLVLNCSFTDSAIYNLQWFRQDPGKGLTSLLLIQSSQREQTSGRLNASLDKSSGRSTLYIAASQPGDSATYLCAVMEDSGYALNFGKGTSLLVTP
Vbeta: NAGVTQTPKFQVLKTGQSMTLQCAQDMNHEYMSWYRQDPGMGLRLIHYSVGAGITDKGEVPNGYNVSRLNKREFSLRLESAAPSQTSVYFCASSRTGYYGYTFGSGTRLTVV
B4: TCR of SEQ ID NOs 20 and 21 (TCR, V domains shown)
Valpha: KQEVTQIPAALSVPEGENLVLNCSFTDSAIYNLQWFRQDPGKGLTSLLLIQSSQREQTSGRLNASLDKSSGRSTLYIAASQPGDSATYLCAVNELGRLYFGRGTQLTVWP
Vbeta: NAGVTQTPKFQVLKTGQSMTLQCAQDMNHEYMSWYRQDPGMGLRLIHYSVGAGITDQGEVPNGYNVSRSTTEDFPLRLLSAAPSQTSVYFCASSYSGGYTFGSGTRLTVV
B5: TCR of SEQ ID NOs 16 and 17 (TCR, V domains shown)
Valpha: KQEVTQIPAALSVPEGENLVLNCSFTDSAIYNLQWFRQDPGKGLTSLLLIQSSQREQTSGRLNASLDKSSGRSTLYIAASQPGDSATYLCAVSGNTPLVFGKGTRLSVIA
Vbeta: NAGVTQTPKFRVLKTGQSMTLLCAQDMNHEYMYWYRQDPGMGLRLIHYSVGEGTTAKGEVPDGYNVSRLKKQNFLLGLESAAPSQTSVYFCASSYVGNTEAFFGQGTRLTVV
B6: TCR of SEQ ID NOs 18 and 19 (TCR, V domains shown)
Valpha: B5 Valpha with V92P
Vbeta: B5 Vbeta with Y95F, V96L

Target: T1, Kita-kyushu lung cancer antigen 1 …
Assay: binding, other

Binding result, recognises:
B1
B2
B3

Target: T2, Kita-kyushu lung cancer antigen 1 …
Assay: binding, other

Binding result, recognises:
B4
B5
B6
